# Laboratory results taken from publication PMC10881741, “Structural modifications toward improved lead-203/lead-212 peptide-based image-guided alpha-particle radiopharmaceutical therapies for neuroendocrine tumors” (European Journal of Nuclear Medicine and Molecular Imaging, 2023).
# Where two headings read alike, the source gives them in different places.
# Experiments:
# [1] = system: AR42J cells; assay: Cellular uptake of ^203Pb-labeled peptides; assay type: cell-based, rat; details: 2 h post-incubation
# Method: PSCTOC and PSC-PEG2-TOC were labeled with ^203Pb and purified via HPLC for high molar activities as descibed in the Supplementary Material and in Li and collaborators. The HPLC-purified ^203Pb-labeled peptides (3.4 kBq) were incubated with AR42J cells in 24-well plates (pre-coated with poly-D-lysine), which were plated at a density of 2.0 × 10^5 cells 2 days prior, in the binding medium at 37 °C for up to 120 min. The cells were then washed twice and lysed, and the radioactivities of the samples were determined (n=3).
# [2] = In vivo biodistribution of ^203Pb-labeled peptides; parameters: species or system mice; details: female, athymic nu/nu, mouse, 37 kBq, total radioactivity; for tissue uptake at 1 h / tissue uptake at 3 h / tissue uptake at 24 h: intravenous; for tissue uptake at 1 h / tissue to tissue ratio at 1 h: 1 h post-administration; for tissue uptake at 3 h / tissue to tissue ratio at 3 h: 3 h post-administration; for tissue uptake at 24 h / tissue to tissue ratio at 24 h: 24 h post-administration; for tissue to tissue ratio at 1 h / tissue to tissue ratio at 3 h / tissue to tissue ratio at 24 h: iv
# Method: AR42J cells (5.0 × 10^6 cells/animal) were implanted subcutaneously on the left shoulder of female athymic nu/nu mice. […] Extra groups of mice were co-administered 37 kBq of ^203Pb-PSC-PEG2-TOC with DL-lysine (400 mg/kg) to determine the effect of amino acid on renal uptake of the radiopharmaceutical. Mice (n=3 per time point) were euthanized at 1, 3, and 24 h post-administration, and tumors and organs/tissues of interest were excised and weighed. The radioactivities of the samples were measured using the gamma counter.
# [3] = large intestine, read-out: Large intestine
# [4] = small intestine, read-out: Small intestine
# [5] = tumor/blood, read-out: Tumor/blood ratio
# [6] = tumor/kidneys, read-out: Tumor/kidneys ratio
# [7] = tumor/liver, read-out: Tumor/liver ratio
# [8] = tumor/lung, read-out: Tumor/lung ratio
# [9] = tumor/muscle, read-out: Tumor/muscle ratio
compound,measurement,setting,value
"C[C@@H](O)[C@@H]1NC(=O)[C@H](CCCCN)NC(=O)[C@@H](Cc2c[nH]c3ccccc23)NC(=O)[C@H](Cc2ccc(O)cc2)NC(=O)[C@@H](NC(=O)[C@@H](Cc2ccccc2)NC(=O)CN2CCN(CC(=O)O)CCN(CC(N)=O)CCN(CC(=O)O)CC2)CSSC[C@@H](C(=O)N[C@H](CO)[C@@H](C)O)NC1=O [[^203Pb]Pb-PSCTOC, metal not drawn]","Cellular uptake, fold vs. [^203Pb]Pb-DOTATOC",[1],6 fold
same,Cellular uptake,[1]; 37 °C,5%
same,tissue uptake at 1 h,"[2]; blood, read-out: Blood",0.53 ± 0.06 %ID/g
same,tissue uptake at 3 h,"[2]; blood, read-out: Blood",0.03 ± 0.01 %ID/g
same,tissue uptake at 24 h,"[2]; blood, read-out: Blood",0.01 %ID/g
same,tissue uptake at 1 h,"[2]; brain, read-out: Brain",0.16 ± 0.16 %ID/g
same,tissue uptake at 3 h,"[2]; brain, read-out: Brain",0.01 %ID/g
same,tissue uptake at 24 h,"[2]; brain, read-out: Brain",0.02 %ID/g
same,tissue uptake at 1 h,"[2]; heart, read-out: Heart",0.32 ± 0.02 %ID/g
same,tissue uptake at 3 h,"[2]; heart, read-out: Heart",0.07 %ID/g
same,tissue uptake at 24 h,"[2]; heart, read-out: Heart",0.05 ± 0.01 %ID/g
same,tissue uptake at 1 h,"[2]; kidneys, read-out: Kidneys",13.6 ± 0.75 %ID/g
same,tissue uptake at 3 h,"[2]; kidneys, read-out: Kidneys",8.35 ± 1.33 %ID/g
same,tissue uptake at 24 h,"[2]; kidneys, read-out: Kidneys",5.59 ± 1.3 %ID/g
same,tissue uptake at 1 h,[2]; [3],0.77 ± 0.04 %ID/g
same,tissue uptake at 3 h,[2]; [3],3.1 ± 0.12 %ID/g
same,tissue uptake at 24 h,[2]; [3],0.45 ± 0.03 %ID/g
same,tissue uptake at 1 h,"[2]; liver, read-out: Liver",0.44 ± 0.02 %ID/g
same,tissue uptake at 3 h,"[2]; liver, read-out: Liver",0.19 ± 0.03 %ID/g
same,tissue uptake at 24 h,"[2]; liver, read-out: Liver",0.14 %ID/g
same,tissue uptake at 1 h,"[2]; lung, read-out: Lung",5.06 ± 0.74 %ID/g
same,tissue uptake at 3 h,"[2]; lung, read-out: Lung",1.09 ± 0.36 %ID/g
same,tissue uptake at 24 h,"[2]; lung, read-out: Lung",1.39 ± 0.27 %ID/g
same,tissue uptake at 1 h,"[2]; muscle, read-out: Muscle",0.25 ± 0.06 %ID/g
same,tissue uptake at 3 h,"[2]; muscle, read-out: Muscle",0.05 ± 0.03 %ID/g
same,tissue uptake at 24 h,"[2]; muscle, read-out: Muscle",0.03 ± 0.01 %ID/g
same,tissue uptake at 1 h,[2]; [4],1.38 ± 0.07 %ID/g
same,tissue uptake at 3 h,[2]; [4],2.85 ± 2.25 %ID/g
same,tissue uptake at 24 h,[2]; [4],0.12 ± 0.01 %ID/g
same,tissue uptake at 1 h,"[2]; spleen, read-out: Spleen",0.7 ± 0.13 %ID/g
same,tissue uptake at 3 h,"[2]; spleen, read-out: Spleen",0.35 ± 0.12 %ID/g
same,tissue uptake at 24 h,"[2]; spleen, read-out: Spleen",0.24 ± 0.03 %ID/g
same,tissue uptake at 1 h,"[2]; tumor, read-out: Tumor",19.1 ± 3.31 %ID/g
same,tissue uptake at 3 h,"[2]; tumor, read-out: Tumor",16.2 ± 1.76 %ID/g
same,tissue uptake at 24 h,"[2]; tumor, read-out: Tumor",8.65 ± 0.7 %ID/g
same,tissue to tissue ratio at 1 h,[2]; [5],36.1
same,tissue to tissue ratio at 3 h,[2]; [5],540
same,tissue to tissue ratio at 24 h,[2]; [5],865
same,tissue to tissue ratio at 1 h,[2]; [6],1.41
same,tissue to tissue ratio at 3 h,[2]; [6],1.94
same,tissue to tissue ratio at 24 h,[2]; [6],1.55
same,tissue to tissue ratio at 1 h,[2]; [7],43.5
same,tissue to tissue ratio at 3 h,[2]; [7],85.3
same,tissue to tissue ratio at 24 h,[2]; [7],61.8
same,tissue to tissue ratio at 1 h,[2]; [8],3.78
same,tissue to tissue ratio at 3 h,[2]; [8],14.9
same,tissue to tissue ratio at 24 h,[2]; [8],6.22
same,tissue to tissue ratio at 1 h,[2]; [9],76.6
same,tissue to tissue ratio at 3 h,[2]; [9],324
same,tissue to tissue ratio at 24 h,[2]; [9],288
